These results are taken from FireProtDB (doi:10.1016/j.jmb.2005.09.091).

A word on the Tm: it is the temperature at the midpoint of the melting transition.

For this series the following is noted: Kitasatospora aureofaciens, Thermal, CD, whole UniProt chain shown.

B1: Guanyl-specific ribonuclease Sa wild type, P05798 (protein)
chain: DVSGTVCLSALPPEATDTLNLIASDGPFPYSQDGVVFQNRESVLPTQSYGYYHEYTVITPGARTRGTRRIITGEATQEDYYTGDHYATFSLIDQTC
Consider B1, for which the Tm reads like this: (pH 3, Glycine 30 mM) 39.9 °C; (pH 7, Mops 30 mM) 47.8 °C; (pH 8.5, Mops 30 mM) 38.7 °C. The “unfolding enthalpy (van 't Hoff)” value (pH 3, Glycine 30 mM) is 81 kcal/mol; the “unfolding enthalpy (van 't Hoff)” value (pH 7, Mops 30 mM) is 91 kcal/mol; the “unfolding enthalpy (van 't Hoff)” value (pH 8.5, Mops 30 mM) was 84 kcal/mol.
